Measurements taken from IntAct's records for PubMed 21108945.

Assays:
[1] = target: nbn_human NBN (UniProt O60934)
[2] = target: nbn_human NBN (UniProt O60934); remark: listed apart in the source

Sequence of UniProt O60934 (O60934 whole entry): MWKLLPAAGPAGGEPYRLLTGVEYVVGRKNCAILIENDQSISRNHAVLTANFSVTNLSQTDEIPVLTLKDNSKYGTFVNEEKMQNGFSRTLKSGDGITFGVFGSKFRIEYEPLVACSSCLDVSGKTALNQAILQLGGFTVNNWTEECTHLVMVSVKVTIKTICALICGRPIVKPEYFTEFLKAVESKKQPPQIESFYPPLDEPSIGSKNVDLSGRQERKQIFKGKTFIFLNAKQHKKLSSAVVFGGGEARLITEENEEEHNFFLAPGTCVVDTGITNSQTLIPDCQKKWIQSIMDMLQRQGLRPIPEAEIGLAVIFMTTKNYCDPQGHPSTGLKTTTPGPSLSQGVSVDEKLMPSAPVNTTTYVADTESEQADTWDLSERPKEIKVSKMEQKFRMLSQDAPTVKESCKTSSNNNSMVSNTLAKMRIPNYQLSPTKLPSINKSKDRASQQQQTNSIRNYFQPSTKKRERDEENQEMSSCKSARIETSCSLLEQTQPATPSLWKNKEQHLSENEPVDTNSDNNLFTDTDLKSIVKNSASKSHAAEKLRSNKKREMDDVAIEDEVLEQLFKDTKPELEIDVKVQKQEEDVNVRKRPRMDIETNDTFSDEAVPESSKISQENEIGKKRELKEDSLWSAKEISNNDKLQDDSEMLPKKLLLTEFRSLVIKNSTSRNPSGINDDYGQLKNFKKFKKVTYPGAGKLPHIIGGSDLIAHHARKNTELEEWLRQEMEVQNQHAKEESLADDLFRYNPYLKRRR

Question: For “Histone acetyltransferase p300 (Homo sapiens), Q09472 S106A”, which “effect of a mutation on the interaction” value [1] is on record?
Answer: Its value is “disrupting interaction”.

Question: And the “effect of a mutation on the interaction” value [2]?
Answer: The value was “decreasing interaction”.
